Test [1] deals with T1, β subunit of Mycobacterium smegmatis RNA polymerase (as in the recombinant core m2) (Mycobacterium smegmatis, UniProt P60281 1-1169).
T1 construct: RNA polymerase subunit β, Mycobacterium smegmatis; In the cryo-EM sample it stood on one chain with β′ (β–β′ fusion of m2), within the core enzyme; also called RNAP β; source: E. coli BL21(DE3), purified as part of the RNAP core (β–β′ fusion)
T1 sequence: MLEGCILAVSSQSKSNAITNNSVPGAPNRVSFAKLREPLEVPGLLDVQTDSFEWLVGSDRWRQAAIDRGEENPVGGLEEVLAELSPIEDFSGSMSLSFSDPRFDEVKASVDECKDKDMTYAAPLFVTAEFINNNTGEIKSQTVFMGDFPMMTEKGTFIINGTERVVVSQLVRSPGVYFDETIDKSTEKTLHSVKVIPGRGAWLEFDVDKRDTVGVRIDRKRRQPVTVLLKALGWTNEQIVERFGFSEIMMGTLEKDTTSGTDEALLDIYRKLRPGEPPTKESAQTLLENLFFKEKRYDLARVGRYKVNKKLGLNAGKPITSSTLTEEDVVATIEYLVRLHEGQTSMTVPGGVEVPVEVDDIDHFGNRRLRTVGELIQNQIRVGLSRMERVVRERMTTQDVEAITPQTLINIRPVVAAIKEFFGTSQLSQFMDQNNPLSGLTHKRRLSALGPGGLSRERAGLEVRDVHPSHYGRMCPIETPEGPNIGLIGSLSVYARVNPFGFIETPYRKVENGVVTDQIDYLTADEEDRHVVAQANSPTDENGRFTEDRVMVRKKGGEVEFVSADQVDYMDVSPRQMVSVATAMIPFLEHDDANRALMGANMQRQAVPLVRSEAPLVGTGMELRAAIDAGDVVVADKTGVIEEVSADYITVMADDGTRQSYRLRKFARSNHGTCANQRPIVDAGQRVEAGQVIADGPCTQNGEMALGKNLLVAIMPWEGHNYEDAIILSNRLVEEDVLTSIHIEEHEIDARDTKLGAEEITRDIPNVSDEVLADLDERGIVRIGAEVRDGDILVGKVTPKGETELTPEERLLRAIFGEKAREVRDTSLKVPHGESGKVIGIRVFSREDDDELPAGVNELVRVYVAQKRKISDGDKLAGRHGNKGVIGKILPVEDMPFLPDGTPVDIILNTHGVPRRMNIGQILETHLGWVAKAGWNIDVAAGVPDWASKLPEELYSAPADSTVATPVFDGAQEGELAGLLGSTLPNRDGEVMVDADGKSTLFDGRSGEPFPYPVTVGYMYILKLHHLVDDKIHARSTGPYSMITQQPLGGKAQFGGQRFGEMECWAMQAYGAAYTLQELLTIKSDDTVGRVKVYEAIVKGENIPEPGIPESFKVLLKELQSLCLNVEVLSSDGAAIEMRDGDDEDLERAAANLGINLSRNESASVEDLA
The test is described as follows: cryo-EM structure; HelD and RNAP core mixed at a molar ratio of 3:1, 4 °C, 15 min; complex isolated on Superose 6 Increase in 20 mM Tris-HCl pH 7.8, 150 mM NaCl, 10 mM MgCl2, 1 mM DTT; three states (I, II, III) from one sample. The note with it: both partners purified.

The target of test [2] is T2, β′ subunit of Mycobacterium smegmatis RNA polymerase (as in the recombinant core m2) (Mycobacterium smegmatis, UniProt A0QS66 1-1317).
T2 construct: RNA polymerase subunit β′, Mycobacterium smegmatis; In the cryo-EM sample it stood on one chain with β (β–β′ fusion of m2), within the core enzyme; also called RNAP β′; source: E. coli BL21(DE3), purified as part of the RNAP core (β–β′ fusion)
The test is described as above. The note with it: both partners purified.

B1: Mycobacterium smegmatis HelD (MSMEG_2174), recombinant (natural protein, UniProt A0QUE0 2-736, looked up)
chain: SGRDYEDELQSERDYVAGLYARLDAERAQSQRRYAAALREHGGTAVERDAEVRALAKDIARLNVADNGLCFGRLDTLDDARLYIGRLGIFDRDNDFEPLLLDWRAPMARPFYVATAANPENMRRRRQFHTLGRKVVDFTDEILGRPTGAEHDATNDAALLAAVNAPRGEGMRDIVATIQAEQDQVIRLDHTGVLVIEGGPGTGKTVVALHRVAYLLYTYRKQMERHGVLVVGPTPAFLDHIGRVLPSLGESDAVFMTPGDFVPGLHVTAEDTPEAAEVKGSLKILDVLKAAVADRQELPSEPIPIDLSDVTMRIDAETAKWARDEARKTGLPHNEARAEFVDVVTYVVTERAVARIGRGWLTRDDKHAWEKMRADVVGELEDHEQFNAALDALWPILTPEDVLAQLYTSHERLRAAGAPECLWRADGEAWTVSDVPLLDELVDLLGRNKAADEAAERERREEEAYAAGVLDLMVDREDLMDDEDHLLAQDLIDAEELADRFKEQDNRELSERAAADREWTYGHVVVDEAQELSEMDWRLLMRRCPRRSFTIVGDLAQRRSPAGARSWGAMLDSYVPGRWVYKSLSVNYRTPAEIMAVAAAVLAEFAPDATPPDSVRACGVAPWARQVTDDDIASAIAEFVSEEAGREGTSVVIGPPDVPGTVPPSETKGLEFDAVLVVEPERILADGPRGAAELYVALTRATQRLGVLYRDALPQALAGLAEGDAAATVEQRTSA
notes: HelD, gene MSMEG_2174 of Mycobacterium smegmatis strain ATCC 700084/mc2 155; the tag is followed by the second amino acid of MSMEG_2174; Codon-optimised synthetic gene in pET302/NT-His; also called Msm HelD; source: E. coli Lemo 21 (DE3), purified (HisTrap, TEV protease, Superdex 75)
With B1, the binding result in test [1] and in test [2] was “binds” in each case.
